± gives the uncertainty stated by the source.
B1: Spectrin alpha chain, erythrocytic 1, residues 979 to 1036; numbered along this chain, P02549 (parent)
chain: EQRVMALYDFQARSPREVTMKKGDVLTLLSSINKDWWKVEAADHQGIVPAVYVRRLAH

Variants of: B1
Assay: abundance fitness (aPCA) (normalised: wild type 0, dead -1); higher = more abundant; growth selection in yeast, the domain comes from the species named
Conditions: Homo sapiens

**Q.** For EQRVMALYVFQARSPREVTMKKGDVLTLLSSINKDWWKVEAADHQGIVPAVYVRRLAH [D9V], which abundance fitness is on record?
**A.** Its abundance fitness is -0.934 ± 0.14.

**Q.** With EQRVMALYMFQARSPREVTMKKGDVLTLLSSINKDWWKVEAADHQGIVPAVYVRRLAH [D9M] as the variant, how does the abundance fitness read?
**A.** Its abundance fitness is -0.855 ± 0.19.

**Q.** With EQRVMALYNFQARSPREVTMKKGDVLTLLSSINKDWWKVEAADHQGIVPAVYVRRLAH [D9N] as the variant, how does the abundance fitness read?
**A.** The abundance fitness was -0.651 ± 0.48.

**Q.** With EQRVMALYWFQARSPREVTMKKGDVLTLLSSINKDWWKVEAADHQGIVPAVYVRRLAH [D9W] as the variant, how does the abundance fitness read?
**A.** Its abundance fitness is -1.02 ± 0.2.

**Q.** For EQRVMALYSFQARSPREVTMKKGDVLTLLSSINKDWWKVEAADHQGIVPAVYVRRLAH [D9S], which abundance fitness is on record?
**A.** Its abundance fitness is -0.754 ± 0.23.

**Q.** For EQRVMALYTFQARSPREVTMKKGDVLTLLSSINKDWWKVEAADHQGIVPAVYVRRLAH [D9T], which abundance fitness is on record?
**A.** The abundance fitness was -0.862 ± 0.3.

**Q.** For EQRVMALYLFQARSPREVTMKKGDVLTLLSSINKDWWKVEAADHQGIVPAVYVRRLAH [D9L], which abundance fitness is on record?
**A.** Its abundance fitness is -0.566 ± 0.16.

**Q.** For EQRVMALYRFQARSPREVTMKKGDVLTLLSSINKDWWKVEAADHQGIVPAVYVRRLAH [D9R], which abundance fitness is on record?
**A.** The abundance fitness was -0.943 ± 0.23.

**Q.** With EQRVMALYDFQAQSPREVTMKKGDVLTLLSSINKDWWKVEAADHQGIVPAVYVRRLAH [R13Q] as the variant, how does the abundance fitness read?
**A.** Its abundance fitness is -0.305 ± 0.088.

**Q.** With EQRVMALYDFQASSPREVTMKKGDVLTLLSSINKDWWKVEAADHQGIVPAVYVRRLAH [R13S] as the variant, how does the abundance fitness read?
**A.** The abundance fitness was -0.221 ± 0.15.

**Q.** For EQRVMALYDFQAKSPREVTMKKGDVLTLLSSINKDWWKVEAADHQGIVPAVYVRRLAH [R13K], which abundance fitness is on record?
**A.** Its abundance fitness is -0.414 ± 0.26.

**Q.** Which abundance fitness does the source give for EQRVMALYDFQAWSPREVTMKKGDVLTLLSSINKDWWKVEAADHQGIVPAVYVRRLAH [R13W] here?
**A.** Its abundance fitness is -0.738 ± 0.24.

**Q.** Which abundance fitness does the source give for EQRVMALYDFQAVSPREVTMKKGDVLTLLSSINKDWWKVEAADHQGIVPAVYVRRLAH [R13V] here?
**A.** Its abundance fitness is -0.867 ± 0.13.

**Q.** Which abundance fitness does the source give for EQRVMALYDFQAFSPREVTMKKGDVLTLLSSINKDWWKVEAADHQGIVPAVYVRRLAH [R13F] here?
**A.** The abundance fitness was -0.585 ± 0.27.

**Q.** Which abundance fitness does the source give for EQRVMALYDFQACSPREVTMKKGDVLTLLSSINKDWWKVEAADHQGIVPAVYVRRLAH [R13C] here?
**A.** The abundance fitness was -0.316 ± 0.23.

**Q.** For EQRVMALYDFQAMSPREVTMKKGDVLTLLSSINKDWWKVEAADHQGIVPAVYVRRLAH [R13M], which abundance fitness is on record?
**A.** Its abundance fitness is -0.751 ± 0.26.

**Q.** With EQRVMALYDFQALSPREVTMKKGDVLTLLSSINKDWWKVEAADHQGIVPAVYVRRLAH [R13L] as the variant, how does the abundance fitness read?
**A.** Its abundance fitness is -0.742 ± 0.12.

**Q.** With EQRVMALYDFQAGSPREVTMKKGDVLTLLSSINKDWWKVEAADHQGIVPAVYVRRLAH [R13G] as the variant, how does the abundance fitness read?
**A.** Its abundance fitness is -0.527 ± 0.079.

**Q.** For EQRVMALYDFQAASPREVTMKKGDVLTLLSSINKDWWKVEAADHQGIVPAVYVRRLAH [R13A], which abundance fitness is on record?
**A.** The abundance fitness was -0.26 ± 0.16.

**Q.** Which abundance fitness does the source give for EQRVMALYDFQSRSPREVTMKKGDVLTLLSSINKDWWKVEAADHQGIVPAVYVRRLAH [A12S] here?
**A.** The abundance fitness was -0.802 ± 0.24.

**Q.** Which abundance fitness does the source give for EQRVMALYDFQPRSPREVTMKKGDVLTLLSSINKDWWKVEAADHQGIVPAVYVRRLAH [A12P] here?
**A.** The abundance fitness was -0.971 ± 0.14.

**Q.** Which abundance fitness does the source give for EQRVMALYDFQMRSPREVTMKKGDVLTLLSSINKDWWKVEAADHQGIVPAVYVRRLAH [A12M] here?
**A.** Its abundance fitness is -0.891 ± 0.41.

**Q.** For EQRVMALYDFQFRSPREVTMKKGDVLTLLSSINKDWWKVEAADHQGIVPAVYVRRLAH [A12F], which abundance fitness is on record?
**A.** The abundance fitness was -0.627 ± 0.41.

**Q.** Which abundance fitness does the source give for EQRVMALYDFQGRSPREVTMKKGDVLTLLSSINKDWWKVEAADHQGIVPAVYVRRLAH [A12G] here?
**A.** Its abundance fitness is -0.779 ± 0.2.

**Q.** With EQRVMALYDFQKRSPREVTMKKGDVLTLLSSINKDWWKVEAADHQGIVPAVYVRRLAH [A12K] as the variant, how does the abundance fitness read?
**A.** The abundance fitness was -0.71 ± 0.47.

**Q.** With EQRVMALYDFQRRSPREVTMKKGDVLTLLSSINKDWWKVEAADHQGIVPAVYVRRLAH [A12R] as the variant, how does the abundance fitness read?
**A.** Its abundance fitness is -0.389 ± 0.17.

**Q.** Which abundance fitness does the source give for EQRVMALYDFQLRSPREVTMKKGDVLTLLSSINKDWWKVEAADHQGIVPAVYVRRLAH [A12L] here?
**A.** Its abundance fitness is -0.964 ± 0.23.

**Q.** For EQRVMALYDFQWRSPREVTMKKGDVLTLLSSINKDWWKVEAADHQGIVPAVYVRRLAH [A12W], which abundance fitness is on record?
**A.** Its abundance fitness is -0.804 ± 0.4.

**Q.** Which abundance fitness does the source give for EQRVMALYDFQVRSPREVTMKKGDVLTLLSSINKDWWKVEAADHQGIVPAVYVRRLAH [A12V] here?
**A.** The abundance fitness was -0.848 ± 0.38.

**Q.** Which abundance fitness does the source give for EQRVMALYDFQARSPSEVTMKKGDVLTLLSSINKDWWKVEAADHQGIVPAVYVRRLAH [R16S] here?
**A.** Its abundance fitness is 0.579 ± 0.45.

**Q.** Which abundance fitness does the source give for EQRVMALYDFQARSPAEVTMKKGDVLTLLSSINKDWWKVEAADHQGIVPAVYVRRLAH [R16A] here?
**A.** The abundance fitness was 0.254 ± 0.37.

**Q.** With EQRVMALYDFDARSPREVTMKKGDVLTLLSSINKDWWKVEAADHQGIVPAVYVRRLAH [Q11D] as the variant, how does the abundance fitness read?
**A.** The abundance fitness was -0.582 ± 0.38.

**Q.** Which abundance fitness does the source give for EQRVMALYDFSARSPREVTMKKGDVLTLLSSINKDWWKVEAADHQGIVPAVYVRRLAH [Q11S] here?
**A.** The abundance fitness was -0.372 ± 0.1.

**Q.** With EQRVMALYDFHARSPREVTMKKGDVLTLLSSINKDWWKVEAADHQGIVPAVYVRRLAH [Q11H] as the variant, how does the abundance fitness read?
**A.** Its abundance fitness is -0.421 ± 0.37.

**Q.** Which abundance fitness does the source give for EQRVMALYDFTARSPREVTMKKGDVLTLLSSINKDWWKVEAADHQGIVPAVYVRRLAH [Q11T] here?
**A.** Its abundance fitness is 0.028 ± 0.14.

**Q.** With EQRVMALYDFVARSPREVTMKKGDVLTLLSSINKDWWKVEAADHQGIVPAVYVRRLAH [Q11V] as the variant, how does the abundance fitness read?
**A.** Its abundance fitness is 0.097 ± 0.13.

**Q.** For EQRVMALYDFIARSPREVTMKKGDVLTLLSSINKDWWKVEAADHQGIVPAVYVRRLAH [Q11I], which abundance fitness is on record?
**A.** Its abundance fitness is -0.419 ± 0.33.

**Q.** For EQRVMALYDFYARSPREVTMKKGDVLTLLSSINKDWWKVEAADHQGIVPAVYVRRLAH [Q11Y], which abundance fitness is on record?
**A.** The abundance fitness was -0.185 ± 0.095.

**Q.** Which abundance fitness does the source give for EQRVMALYDFAARSPREVTMKKGDVLTLLSSINKDWWKVEAADHQGIVPAVYVRRLAH [Q11A] here?
**A.** Its abundance fitness is -0.37 ± 0.14.

**Q.** Which abundance fitness does the source give for EQRVMALYDFWARSPREVTMKKGDVLTLLSSINKDWWKVEAADHQGIVPAVYVRRLAH [Q11W] here?
**A.** The abundance fitness was -1.23 ± 0.32.

**Q.** For EQRVMALYDFGARSPREVTMKKGDVLTLLSSINKDWWKVEAADHQGIVPAVYVRRLAH [Q11G], which abundance fitness is on record?
**A.** Its abundance fitness is -0.774 ± 0.11.

**Q.** With EQRVMALYDFPARSPREVTMKKGDVLTLLSSINKDWWKVEAADHQGIVPAVYVRRLAH [Q11P] as the variant, how does the abundance fitness read?
**A.** The abundance fitness was -0.91 ± 0.37.

**Q.** Which abundance fitness does the source give for EQRVMALYDFKARSPREVTMKKGDVLTLLSSINKDWWKVEAADHQGIVPAVYVRRLAH [Q11K] here?
**A.** The abundance fitness was 0.303 ± 0.14.

**Q.** For EQRVMALYDFCARSPREVTMKKGDVLTLLSSINKDWWKVEAADHQGIVPAVYVRRLAH [Q11C], which abundance fitness is on record?
**A.** The abundance fitness was -0.348 ± 0.094.

**Q.** For EQRVMALYDFEARSPREVTMKKGDVLTLLSSINKDWWKVEAADHQGIVPAVYVRRLAH [Q11E], which abundance fitness is on record?
**A.** The abundance fitness was -0.328 ± 0.34.
